The results in this text go back to US20150011431A1 (Scripps Research, published 2015).

For test [1], the target named is T1, CXCR1 (UniProt P25024 1-350, limits assumed).
T1 construct: whole, on cells; DiscoveRx cells engineered with a luminescent reporter enzyme for beta-arrestin recruitment; also called CXCR1-U2OS; U2OS-CXCR1
T1 sequence (looked up): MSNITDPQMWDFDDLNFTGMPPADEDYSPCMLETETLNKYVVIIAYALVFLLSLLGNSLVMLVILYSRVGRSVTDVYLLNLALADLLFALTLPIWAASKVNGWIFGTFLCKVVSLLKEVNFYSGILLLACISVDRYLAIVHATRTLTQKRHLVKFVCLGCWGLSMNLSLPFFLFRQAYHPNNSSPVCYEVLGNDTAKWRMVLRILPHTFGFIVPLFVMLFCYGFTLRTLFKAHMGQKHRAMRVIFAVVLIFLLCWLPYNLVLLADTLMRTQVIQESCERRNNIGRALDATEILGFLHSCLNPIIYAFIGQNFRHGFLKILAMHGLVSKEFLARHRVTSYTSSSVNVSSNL
Description: flow cytometry, IgG-containing supernatant on CXCR1-U2OS cells, fluorescent anti-human Fc. How it is done: (§1) In an exemplary method, BLV1H12 IgG comprising a CDR3 with an IL-8 insert (e.g., the IL-8 sequence replaced a portion of the CDR3) was evaluated for binding to CXCR1 expressing cells by flow cytometry. Briefly, a cell line expressing functionally validated CXCR1 derived from U2OS cells was obtained from DiscoveRx and cultured per manufacturer's instructions (Cat#93-0226C3, DiscoveRx Corporation, Freemont, Calif.). The parental cell line U2OS was obtained from ATCC and cultured under the same conditions as the CXCR1 cells. Cell culture supernatants were then tested for binding to cells by flow cytometry. The adherent U2OS or CXCR1-U2OS cells were dissociated with Accutase (Innovative Cell Technologies, Inc., San Diego, Calif.), neutralized with an equal volume of media containing 10% serum, centrifuged at 1000 g, and resuspended in PBS with 2% BSA. Next, cells were dispensed into microtiter plates to achieve between 30,000 to 300,000 cells per well, centrifuged again, and resuspended in cell culture supernatant containing expressed IgG, or a dilution of IgG-containing cell culture supernatant. A fluorescent-conjugated anti-Human Fc antibody was used to detect binding of the expressed antibody to cells.
(§2) Additionally, the human germline CDR3-IL8 IgGs described in Example 5 were evaluated for binding to CXCR1 expressing cells by flow cytometry as described above. IgG binding to CXCR1-U2OS cells is indicated by higher fluorescence values, but non-specific binding to U2OS parental cells is also detectable.

Test [2] deals with T1, CXCR1. As to the kind of experiment: flow cytometry; fluorescence on CXCR1-U2OS cells over fluorescence on parental U2OS cells. How it is done:
as §1, §2

The target of test [3] is T1, CXCR1. Description: flow cytometry with 2 ug/ml heparin sulfate, IgG normalized to 10 nM; CXCR1-U2OS against parental U2OS cells. How it is done: Cell culture supernatants were then tested for binding to cells by flow cytometry. The adherent U2OS or CXCR1-U2OS cells were dissociated with Accutase (Innovative Cell Technologies, Inc., San Diego, Calif.), neutralized with an equal volume of media containing 10% serum, centrifuged at 1000 g, and resuspended in PBS with 2% BSA. Next, cells were dispensed into microtiter plates to achieve between 30,000 to 300,000 cells per well, centrifuged again, and resuspended in cell culture supernatant containing expressed IgG, or a dilution of IgG-containing cell culture supernatant. A fluorescent-conjugated anti-Human Fc antibody was used to detect binding of the expressed antibody to cells.
In an exemplary method, variants of V1-51 were made by overlap PCR and subcloned into pFuse vector for expression as described in Example 4. […] These V1-51 variants were paired with heavy chains encoding VH4-34+CDR3-IL8 (SEQ ID NO: 430), VH4-34+CDR3-IL8_CDR1 Cow (SEQ ID NO: 432), VH4-34+CDR3-IL8_CDR2 Cow (SEQ ID NO: 433), or VH4-34+CDR3-IL8_CDR1 Cow CDR2 Cow, (SEQ ID NO: 436). Transfections and ELISA were carried out as described above, and flow cytometry was used to evaluate CXCR1 binding specificity as previously described, with the modification that cells were resuspended in 2% BSA in PBS plus 2 ug/ml Heparin sulfate, and IgGs were normalized to 10 nM during incubation on cells.

B1: IgG with VH1-69+CDR3-IL8 (antibody)
VH: QVQLVQSGAEVKKPGSSVKVSCKASGGTFSSYAISWVRQAPGQGLEWMGGIIPIFGTANYAQKFQGRVTITADKSTSTAYMELSSLRSEDTAVYYCTSVHQETKKYQSPRSAKELRCQCIKTYSKPFHPKFIKELRVIESGPHCANTEIIVKLSDGRELCLDPKENWVQRVVEKFLKRAENSGSGSYTYNYEWHVDVWGQGLLVTVSSAS
light: not shown
notes: IgG; VH cloned before human IgG1 CH1-CH2-CH3 in HC pFuse; cell culture supernatant; also called VH1-69 BLVCDR3IL8
With B1, in the test with CXCR1 [1], the “median fluorescence on CXCR1-U2OS” value is 78 AFU. In the test with CXCR1 [2], the “Ratio of CXCR1/Parental” value worked out at 4.

B2: IgG with VH4-34+CDR3-IL8_CDR1 Cow CDR2 Cow and light chain V1-51 CDR1 I29V, N32G (antibody)
heavy: not shown
light: QSVLTQPPSVSAAPGQKVTISCSGSSSNVGNGYVSWYQQLPGTAPKLLIYDNNKRPSGIPDRFSGSKSGTSATLGITGLQTGDEADYYCASAEDSSSNAVFGSGTTLTVLGQPKAAPSVTLFPPSSEELQANKATLVCLISDFYPGAVTVAWKADSSPVKAGVETTTPSKQSNNKYAASSYLSLTPEQWKSHRSYSCQVTHEGSTVEKTVAPTECS
notes: IgG, human IgG1 CH1-CH2-CH3; normalized to 10 nM; also called VH4-34 CDR3-IL8 CDR1-Cow & CDR2-Cow / V1-51 CDR1 I29V, N32G
Turning to B2, the CXCR1 specificity with CXCR1 [3] turned out to be 11.8.

B3: IgG with VH4-34+CDR3-IL8_CDR1 Cow and light chain V1-51 CDR2 DNNKRP to GDTSRA (antibody)
heavy: not shown
light: QSVLTQPPSVSAAPGQKVTISCSGSSSNIGNNYVSWYQQLPGTAPKLLIYGDTSRASGIPDRFSGSKSGTSATLGITGLQTGDEADYYCASAEDSSSNAVFGSGTTLTVLGQPKAAPSVTLFPPSSEELQANKATLVCLISDFYPGAVTVAWKADSSPVKAGVETTTPSKQSNNKYAASSYLSLTPEQWKSHRSYSCQVTHEGSTVEKTVAPTECS
notes: IgG, human IgG1 CH1-CH2-CH3; normalized to 10 nM; Only 'DNN (amino acids 51-53)' is printed; positions 54 and 56 are counted on from it
Turning to B3, the CXCR1 specificity in the test with CXCR1 [3] worked out at 8.

B4: IgG with VH4-34+CDR3-IL8_CDR1 Cow CDR2 Cow and light chain V1-51 CDR2 DNNKRP to GDTSRA (antibody)
heavy: not shown
light: QSVLTQPPSVSAAPGQKVTISCSGSSSNIGNNYVSWYQQLPGTAPKLLIYGDTSRASGIPDRFSGSKSGTSATLGITGLQTGDEADYYCASAEDSSSNAVFGSGTTLTVLGQPKAAPSVTLFPPSSEELQANKATLVCLISDFYPGAVTVAWKADSSPVKAGVETTTPSKQSNNKYAASSYLSLTPEQWKSHRSYSCQVTHEGSTVEKTVAPTECS
notes: IgG, human IgG1 CH1-CH2-CH3; normalized to 10 nM
For the molecule B4, the CXCR1 specificity with CXCR1 [3] came out at 6.9.

B5: IgG with VH4-34+CDR3-IL8_CDR1 Cow and light chain V1-51 CDR1 I29V, N32G (antibody)
heavy: not shown
light: QSVLTQPPSVSAAPGQKVTISCSGSSSNVGNGYVSWYQQLPGTAPKLLIYDNNKRPSGIPDRFSGSKSGTSATLGITGLQTGDEADYYCASAEDSSSNAVFGSGTTLTVLGQPKAAPSVTLFPPSSEELQANKATLVCLISDFYPGAVTVAWKADSSPVKAGVETTTPSKQSNNKYAASSYLSLTPEQWKSHRSYSCQVTHEGSTVEKTVAPTECS
notes: IgG, human IgG1 CH1-CH2-CH3; normalized to 10 nM; also called VH4-34 CDR3-IL8 CDR1-Cow / V1-51 CDR1 I29V, N32G
Take B5: the CXCR1 specificity with CXCR1 [3] stood at 8.9.

B6: IgG with VH4-34+CDR3-IL8_CDR1 Cow CDR2 Cow and light chain V1-51 S2A, T5N, P8S, A12G, A13S, P14L (antibody)
heavy: not shown
light: QAVLNQPSSVSGSLGQKVTISCSGSSSNIGNNYVSWYQQLPGTAPKLLIYDNNKRPSGIPDRFSGSKSGTSATLGITGLQTGDEADYYCASAEDSSSNAVFGSGTTLTVLGQPKAAPSVTLFPPSSEELQANKATLVCLISDFYPGAVTVAWKADSSPVKAGVETTTPSKQSNNKYAASSYLSLTPEQWKSHRSYSCQVTHEGSTVEKTVAPTECS
notes: IgG, human IgG1 CH1-CH2-CH3; normalized to 10 nM; also called VH4-34 CDR3-IL8 CDR1-Cow & CDR2-Cow / V1-51 S2A, T5N, P8S, A12G, A13S, P14L
Regarding B6, the CXCR1 specificity in the test with CXCR1 [3] worked out at 12.2.
